Molecular target: T1, C-terminal domain of XerD (XerDC), as part of the XerDC-FtsKγ fusion protein (E. coli, UniProt P0A8P8 111-298)
T1 construct: XerD tyrosine recombinase, E. coli, residues 111 to 298 (C-terminal, catalytic domain); also called XerD C-terminal domain; XerD portion of XerDC–γ; source: overproduced from pBad24, purified (Ni2+ resin, HiTrap heparin HP, HiTrap Q HP)
T1 sequence (looked up): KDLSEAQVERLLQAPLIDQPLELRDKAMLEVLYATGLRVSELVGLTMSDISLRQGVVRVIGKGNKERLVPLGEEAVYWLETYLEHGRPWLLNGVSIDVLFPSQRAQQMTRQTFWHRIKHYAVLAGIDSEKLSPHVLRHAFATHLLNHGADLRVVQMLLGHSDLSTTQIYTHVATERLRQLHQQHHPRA
Test: crystal structure; XerDC (XerD 111-298) and FtsKγ (FtsK 1261-1329) joined on one chain by a 16 amino acid linker; hanging drop, 100 mM Bicine (pH9), 10% (w/v) polyethylene glycol 8000; molecular replacement, 2.3 Å
Conditions: both partners purified

binding result: binds
B1: FtsKγ domain, as part of the XerDC-FtsKγ fusion protein (domain or fragment, E. coli, UniProt P46889 1261-1329, looked up)
chain: GAEELDPLFDQAVQFVTEKRKASISGVQRQFRIGYNRAARIIEQMEAQGIVSEQGHNGNREVLAPPPFD
notes: FtsK DNA translocase, E. coli, residues 1261 to 1329 (γ domain, very C-terminus); In the functional rows with m4 it is the γ portion of the full length XerD-FtsKγ fusion, from which the crystallised fusion was amplified; also called γ domain of FtsK; source: overproduced from pBad24, purified (Ni2+ resin, HiTrap heparin HP, HiTrap Q HP)

From article PMC5052618, “Activation of Xer-recombination at dif: structural basis of the FtsKγ–XerD interaction” (Scientific Reports, 2016)
